{"source": "paper PMC4974474", "key": {"[1]": {"target": "POC1", "test": "SAXS; each POC alone, 50 μM; oligomeric state from the total scattering"}, "[2]": {"target": "POC1+POC2+POC3 assembly", "test": "SAXS; POC1+POC2+POC3 (1:1:1) at 50 μM; beamline B21, Diamond Light Source"}, "[3]": {"target": "POC2", "test": "SAXS; each POC alone, 50 μM; oligomeric state from the total scattering"}, "[4]": {"target": "POC3", "test": "SAXS; each POC alone, 50 μM; oligomeric state from the total scattering"}}, "data": [{"substance": "POC1", "values": [{"measurement": "stoichiometry N", "setting": "[1]", "value": 2}]}, {"substance": "POC1+POC2+POC3 assembly (complex)", "values": [{"measurement": "stoichiometry N", "setting": "[2]", "value": 2}]}, {"substance": "POC2", "values": [{"measurement": "stoichiometry N", "setting": "[3]", "value": 3}]}, {"substance": "POC3", "values": [{"measurement": "stoichiometry N", "setting": "[4]", "value": 3}]}]}
